Results reported in the DeepSol protein solubility set.

Experiment: soluble on expression in E. coli; label from the status in PepcDB or PDB records

Sequence | soluble on expression in E. coli
MTDSKYFTTTKKGEIFELKNELNSDKKEKKKEAVKKVIASMTVGKDVSALFPDVVNCMQTDNVELKKLVYLYLMNYAKSQPDLAIMAVNTFVKDCEDPNPLIRALAVRTMGCIRVEKITEYLCDPLRRCMKDEDPYVRKTAAVCVAKLHDMNPALVKEQGFVELLNDLLSDANPMVVANAVAALTEMNEQQTVIEVNSQMVNKLLTALNECTEWGQVFILDALAGYTPRDERETQNICERISPRLAHANAAVVLSTVKVLMKLIDMMPADSDFITQLTKKLAPPMVTLLSAEPEIQYVALRNINLIVQKRPDILKQEMKVFFVKYNDPIYVKMEKLDIMIRLAQQNNIAQVLSELKEYATEVDVDFVRKSVRAIGRCAIKVEASSERCVQTLLELIQTKVNYVVQEAVVVIKDIFRKYPNRYESIISALCENLDTLDEPEARASMIWIIGEYAERIDNADELLESFVEGFHDENTQVQLQLLTAVVKLFLKRPGVAQALVQRVLSLATQDSDNPDLRDRGFIYWRLLSADPAAAKNVVLTEKPLISEETDLLEPSLLEQLVCHIGTLASVYHKPPSAFIDPAKAPLRQINPIPAAKFGSSLLDTSSTPNAARNGSAAAPTVIPSQDQVIADLLSLDLNAPAASANTGAFGGAMSGTTSMGGLDDLLGLGGDPMPAAPTNSASYNPFDGLGGLGGAAPAAPPSQQPASIGGLAEIFGSGGFGGSSGITYPKELWLDASKAMGMQVEGTFVRRGGKIFMEMTITNRAMQAISGFALQFNKNSFGLIPVEQVNPAPILPNQSQNYTIACDTTGAVQVTTPLTNLQVSCSL | not soluble
MTDSTPQGSTPGMSPEAILNGTGKPWEEWLKLLDDVKATSWTHTHIAKHIVDNFDVSGWWAQGIAIGYEYERGMRKPGMTSDGFAANASKTLNLPVEKVWKLFGDDDLRAQWLDPALIEKTSASEPRTFNAKWLADDSRVSVNFTSKGDNKSSFGIQHRRLPDQDSIPVMKAFWKERIAALVEVSKQFSLLEHHHHHH | soluble
MTEADYGEMVRREKCIMFVKRFCPYSIRARELLHDRGVGCKIIEVDNNLDAYSFAKRNHSTFPVFFLDGDLVEGGCEKLLVLSDSNLPPFDKSPLLTQNREPVLLD | not soluble
MTECLQTKKSNCKNCYKCIRHCPVKSLKFTDGQAHIVRDECVLCGECYVVCPQNAKQIRSDVEKAKQLVLKYDVYASIAPSFVAWFHNKSIHDMEQALIKLGFKGADETAKGAYIVKKQYEKMIEEKKSKIIISSCCHTVNTLIQRHYTGAIQYLADVVSPMLAHAQMLKKEHKGAKVVFIGPCISKKDEAEKYKGYVELVLTFDELDEWLKSENITIESNRGSSKEGRTRSFPVSGGIISSMDKDLGYHYMVVDGMENCINALENIERGEIDNCFIEMSACRGSCINGPPARRKSNNIVGAILAVNKNTGAKDFSVPMPEPEKLKKEFRFEGVHKIMPGGTAIEEILKKMGKTSIEHELNCGSCGYDTCRDKAVAVLNGKADLTMCLPYLKEKAESFSDAIIKNTPNGVIVLNEDLEIQQINNSAKRILNLSPSTDLLGSPVSRILDPIDYILALREGKNCYYKRKYFAEYKKYVDETIIYDKEYHVIIIIMRDVTEEEKIKALKNKQSEAAIEIADKVVEKQMRVVQEIALLLGETAAETKIALTKLKETMEDE | not soluble
MTEKLKNSKEVIAYIAECFPKCFTLEGEAKPLKIGIFQDLAERLNEDEKVSKTQLRAALRQYTSSWRYLHGVKPGAVRVDLDGNPCGELEEEHVEHAKATLAESKAKVQARRKEQAQKAREEGKAKAKPAANKKPQQPRRTNKPKVQKPTK | not soluble
MTEMAKGSVTHQQLIALLSQEGANFRVVTHEAVGKCEAVSEIRGTALGQGAKALVCKVKGNGVNQHVLAILAADQQADLSQLASHIGGLRASLASPAEVDELTGCVFGAIPPFSFHPKLKLVADPLLFERFDEIAFNAGMLDKSVILKTADYLRIAQPELVNFRRTA | not soluble
MTENFAQLFEESLKEIETRPGSIIRGTIVAVNKDNVIVDAGLKSESVISIDQFKNAAGEVEVVVGDEIDVALDATDDGFGETILSREKAKRHEAWQVLEKAYEEKETVIGVINGKVKGGFTVEVSDIRAFLPGSLVDVRPVRDTAHLEGKPLEFKVIKLDQKRNNVVVSRRAVIEAEGSAERDELLESLAEGQEVKGIVKNLTDYGAFVDLGGIDGLLHITDMAWKRVKHPSEIVNVGDEIQVKVLKFDRERTRVSLGMKQLGEDPWVAIANRYPEGSKLSGRVTNLTDYGCFVEIQEGVEGLVHVSEMDWTNKNIHPSKVVNLGDTVEVLVLEIDEERRRISLGLKQCIANPWEEFAKNFNKGDKVSGKIKSITDFGIFIGLDGGIDGLVHLSDISWAGGEEAVRDYKKGDEIDAIVLQVDPERERISLGVKQAEDDPFNMYLADKKKGAIVTGKVTEVDAKGATILLAESVEGYLRVSDISVERIEDASTVLKVGDDVEARFMGVDRKNRTISLSIKAKDQADEREAMDNLNQVEETGLSAMAAAFKNAKNLEHHHHHH | soluble
MTEPLFVITDRPISVEDVMKKVMRPEAGAVAVFAGTVREWTNGKRTLFLQYEAYVSMAEKMLAQIGAEIAEKWPGAKTAITHRIGRLEIGDIAVVIAVSSPHRAEAYEANRYAIERIKQIVPIWKKEQWEDGSAWVGDQLETTAYPSGKPEVSEE | soluble
MTEQSAHEKYEFKKKLEGLRDKKGRSTELISLYIPPDKQIFDVTNQLKDEHGQAANIKSKLTRTNVQGAIESLLSRLRYLDKVPENGIVYFTGAVDIGANKTSMESEVIVPPDPITVYKYHCDSSFYLEPLEDMLKDKNTYGLLVLDRREATIGLLVGKRIQPFRNLTSTVPGKQRKGGQSAHRFQQLRLIAIHDFYKRIGDAASEVFMAVDHKDLKGVLIGGPSPTKEEFHAGEFLHHELMKKILGLFDTAYTDESGLSELVNAAGEKLQDLELMGQKNAVRDFFKELIADSGKVAYGESQVRANLEINSVDVLLLSEDLRAERVTTKCSVCGYENKWTRRWKPGEPAPAAGNCPKCGSSLEVTDVTDIVDEFSELADKSNAKVVFVSTDFDEGSQLMNAFGGIAAILRYNTGV | not soluble
MTESFAELFEASQANLAKLKPGSIVTGTVVEVRGDVVVINAGLKSEGIVPIEQFRNDAGEIDVGVGDQVKVALDSIENGFGETVLSREKAKRAMVWDELEEALEKNETITGRISGKVKGGFTVDIKDVRAFLPGSLVDVRPVRDPAYLEGKELEFKLIKLDRKRNNVVVSRRAVVESEHSEEREQLMDKLQEGAILKGVVKNLTDYGAFVDLGGIDGLLHITDMAWKRVRHPSEVVNVGDELDVRVLKFDRERNRVSLGLKQLGEDPWDNIARRYPANSRVFGKVSNVTDYGAFVEIEPGVEGLVHVSEMDWTNKNVNPSKVVQVGDEVEVMVLDVDEERRRISLGMKQVAANPWETFAATHKKNDKVSGQIKSITDFGIFIGLDGGIDGLVHLSDISWNTTGEDVVRNYKKGDTLEAVVLAVDPERERISLGVKQLEQDPFGQYMASNPKGSKVEGVVREVDAKGATIDLADGIEGYVAARDIANERVDDATQHLKVGDKIEAKFVGMDRKGRTLQLSIKAKDDAEMREVLEEYQSASGGTTQLGALLRAQLNSNKSELEHHHHHH | soluble
MTESNGNSEITTTEGNTGPVVESSLDPLAGRPEQSEDDIAKASDVEEYLRDVIDPELGINVVDLGLVYDIWMEGSIHAHVNMTLTSPACPLTDVIEDQAESAVVGNKVAETLTIHWVWMPPWGPHMITEDGREQLRALGFSV | not soluble
MTETKEERVHQVFEKIYKRYDVMNSVISFQRHKAWRKDTMKRMNVQEGQSALDVCCGTADWAIALGKAVGPTGHVEGLDFSENMLSIGKKKIADERLDHVFLRHGNAMELPYADDTFDFVTIGFGLRNVPDYMQVLREMARVTKPGGKVVCLETSQPTIPVFKQLYFFYFRHVMPLFGKMFAKSYDEYSWLQESTLSFPGRDRLAQMFKEVGLTDVQVKPYSGGAAAMHLGVKESYDEESRNVTCLEHHHHHH | not soluble
MTEVIGIKFEENGAVEYVVPDKNYTKGDFVVVLEKKDKRLAQVVMENTVFPEVSLPVDLNRVEGLASKRDFARYDENLLKAEQSMGVVADLIAQNQLDMKVVDIVFPLNSSYVLISFVAEKRVDFRQLLEDLAAYFKTRIELRQISSREESKIYGGLGPCGRALCCSSFLGEFPPVSIKMAKNQSLSLNSGKMNGVCGRLMCCLSYEDDFYRDSKASYPDLGEEIETKEGRGQVIAIDVIAGTVKVMFEKGGAPLTYGVEEVQLNGKAAAALEHHHHHH | soluble
